One substance from article PMC10830420, “Structures, functions and adaptations of the human LINE-1 ORF2 protein” (Nature, 2023) can be followed below.

By Km is commonly meant the concentration of substrate that gives half-maximal velocity.

The series concerns Nc1ncnc2c1ncn2[C@H]1C[C@H](O)[C@@H](COP(=O)(O)OP(=O)(O)OP(=O)(O)O)O1. Nature of the series: Single nucleotide (dATP) incorporation kinetics, HERV-K RT. In kind it is biochemical, human. The settings on record: 20-nt DNA primer, HERV-K RT 12 nM. How it is done: Extended Data Fig. 5 Comparative enzymology of ORF2p RT with HIV-1 and HERV-K. a, Single nucleotide incorporation kinetic curves and parameters of dATP with 36-nt RNA or DNA template and 20-nt DNA primer with ORF2p core (33 nM), HIV-1 RT (4 nM) and HERV-K RT (12 nM). For each enzyme, Michaelis-Menten parameter kcat/KM is nearly identical on both templates (n = 3 (DNA template) and n = 4 (RNA template) independent samples over 2 independent experiments; data represented as mean ± SD). b, Comparison of HIV-1 RT and ORF2p in extension of very short (5–10 nt) primers, pre-annealed to DNA and RNA templates. ORF2p extends all DNA and RNA primer lengths, with somewhat reduced efficiency at 5 nt and, to a lesser extent, 6 nt. […] ORF2p also makes NTA (+) and template jumping/switching (##) larger products; more visible on longer exposure. […] When all products are quantified, HIV-1 extends 21–37% of primers, and this is roughly halved by the heparin trap; ORF2p extends ~10–18% of primers and is unaffected by the trap. […] Asterisk (*) Cy5-5’-label on primer. n = 1 quantified samples shown representative of two independent experiments. […]

On to HERV-K RT (Homo sapiens), for which the Km by setting is: (other: DNA template 36-nt) 4.3 ± 0.1 nM; (other: RNA template 36-nt) 9.5 ± 0.1 nM.
